Experimental data from patent US20250304916A1, “METHODS AND COMPOSITIONS FOR GENERATING VASCULAR LEPTOMENINGEAL CELLS” (Trailhead Biosystems Inc., priority 2024, published 2025).

Test system: MBP expression
Assay: HD-DoE 8-factor model (stage 4), optimized for maximum expression of MBP
Format: cell-based, human
Conditions: model optimized for MBP at 274; FIG. 6

B1: NT-3: neurotrophin-3, a Trk C pathway agonist (protein, UniProt P20783 139-257, looked up)
Neurotrophin-3: YAEHKSHRGEYSVCDSESLWVTDKSSAIDIRGHQVTVLGEIKTGNSPVKQYFYETRCKEARPVKNGCRGIDDKHWNSQCKTSQTYVRALTSENNKLVGWRWIRIDTSCVCALSRKIGRT
- factor contribution, positive impact on MBP expression: 12.1
